For data set [1], the system named is HCMV. Description: Plaque formation assay. Format: cell-based, Human cytomegalovirus. The conditions noted are these: HEL; CMV-GFP MOI of 1; siRNA knockdown at time of infection; counted at 14 dpi. How it is done:
HEL cells transfected with PDGFRα siRNA and control cultures were infected with CMV-GFP (MOI of 1), as described in FIG. 8. Unabsorbed viruses were washed and cells were returned to 37 C. 24 h later, supernatant was harvested and used to infect naïve HEL cultures (6 wells/condition) which were monitored daily for 14 days under the fluorescence microscope for plaque formation. Photomicrographs show representative examples of the CMV-GFP infected cells at 2 and 12 days post infection (2 dpi and 12 dpi, respectively). b. Average plaques counted in 4 separate low magnification fields for each well at 14 dpi. […] As receptor levels return to normal (12 dpi), few infected (green fluorescent) cells were detected in the PDGFRα siRNA treated cultures (a, lower right panel), without formation of plaques. Plaque formation assays were repeated twice. Average counts (n=12)±SD are shown.
Plaque Formation Assays. Plaque formation was assayed. Confluent HEL cells in 6 well cluster plates were incubated with Towne-GFP (MOI of 1, 1 hr) in 0.5 ml growth media. Cells were washed and returned to 37° C. (in complete growth media). 24 h later supernatant was harvested and used to infect naïve HEL cultures which were monitored for plaque formation for 6-14 days. […] At day 14, plaques in ten low magnification fields/condition were counted (each experimental condition was tested in 6 independent wells).

Data set [2] relates to HCMV. Description: HCMV pp65 western blot in HEL cells. Format: cell-based, Human cytomegalovirus. The conditions noted are these: siRNA 48 h prior to HCMV MOI of 1, western blot 2 h post-infection, indicates viral entry not inhibited. How it is done: HEL cells were transfected with siRNA against the PI3K p110α catalytic subunit (a mixture of 4 RNAi oligos, “smart pool” from Dharmacon) or non-targeting, control siRNA (Dharmacon) for 48 h prior to infection with HCMV (MOI of 1) for 1 hour. Cells were washed and cultured for 2 h-6 days. a. […] The mean number of IE1 positive cells is reduced by ˜50% in the PI3 Kp110α knockdown cultures—panel c**, p<0.01. PI3K p110α knock down is also significant (b, left panels, red fluorescence). However, unlike cells that lack a functional PDGFRα, PI3K p110α knock down cells are capable of producing infectious virus as shown by IE1 staining of the secondary infected cultures (panel d). A 10% decrease in infectious virus production in the cells treated with p110α siRNA is insignificant*, bars represent SD, […], panel c. Experiments were repeated twice, all conditions were assayed in triplicate. Similar results were obtained with both Towne-infected cultures (illustrated in this figure) and CMV-GFP.
Upper panel: HEL cells pretreated with anti-human PDGFRα antibody (10 ng/ml, for 30 min, clone AF-307-NA from R&D; lanes 1 and 4) or with AG 1295 (lane 3, […], from Calbiochem) were stimulated with Towne HCMV (lanes 2-4) or Mock infected (lane 1) for 10 min at 37 C. […]
Western Blot, Immunoprecipitation, and Immunofluorescence analyses. […] Cell lysates were analyzed by SDS-PAGE. […]
A general note: In western blotting, separated proteins are transferred to a membrane and probed.

Entries after “also recorded” stand apart in the source; their conditions may differ.

B1: PDGFRα siRNA: "smart Pool" siRNA to hPDGFRα (Dharmacon), SEQ ID NO: 1-4 (nucleic acid)
chain 1: CGAGACUCCUGUAACCUUAUU
chain 2: GAGCUUCACCUAUCAAGUUUU
chain 3: GACAGUGGCCAUUAUACUAUU
chain 4: GAAUAGGGAUAGCUUCCUGUU
modifications: pool of four siRNAs, further chemistry not given here
For the molecule B1, the plaque formation entry in the data set on HCMV [1] was “completely blocked; also recorded: No plaques were formed”.

B2: p110α siRNA: mixture of 4 RNAi oligos, "smart pool" from Dharmacon, against PI3K p110α, SEQ ID NO: 5-8 (nucleic acid)
chain 1: GCGAAAUUCUCACACUAUU
chain 2: GUGGUAAAGUUCCCAGAUA
chain 3: GCUUAGAGUUGGAGUUUGA
chain 4: GACCCUAGCCUUAGAUAAA
modifications: pool of four siRNAs, further chemistry not given here
As to B2, the “pp65 HCMV expression” value with HCMV [2] is “unchanged”.

The values above are taken from US9340788B2 (priority 2007, dated 2016).
